For this assay, the target named is NBD-conjugated actin from α-skeletal muscle (F-actin) (UniProt P68135). Description: NBD-F-actin fluorescence titration. Conditions: reference: unphosphorylated Tau(254–284) peptide; sites S262.

“Tau (2N4R) 254-284 (from UniProt P10636-8) pS262 Tau(254–284) peptide”: the “binding against the reference” value is recorded as “weaker”.

For the origin of these results see paper PMC5719408, “Multivalent cross-linking of actin filaments and microtubules through the microtubule-associated protein Tau” (Nature Communications, 2017).
